Laboratory results taken from patent US20240042018A1 (University of Washington, published 2024).

Legend:
I53_dn5B_2gly trimer = molecular target: T1, I53_dn5B_2gly trimer (N-linked glycans at PNGS 32-YDNLT-36 and 89-NAT-91); test: in vitro nanoparticle assembly, SEC and SDS-PAGE
T1 chain: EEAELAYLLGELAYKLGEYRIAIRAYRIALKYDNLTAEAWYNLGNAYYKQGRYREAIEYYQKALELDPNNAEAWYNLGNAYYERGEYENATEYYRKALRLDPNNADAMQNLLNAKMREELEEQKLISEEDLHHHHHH

I53_dn5B trimer = molecular target: T2, I53_dn5B trimer; test: nanoparticle assembly grade, Table 3
T2 chain: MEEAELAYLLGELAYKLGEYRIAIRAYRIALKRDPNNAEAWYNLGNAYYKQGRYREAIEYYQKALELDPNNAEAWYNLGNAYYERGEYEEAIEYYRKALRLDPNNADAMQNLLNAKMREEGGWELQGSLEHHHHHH

B1: I53_dn5A_2gly pentamer (designed binder)
chain: KYDGSKLRIGILHARGNAEIILELVLGALKRLQEFGVKRENIIIETVPGSFELPYGSKLFVEKQKRLGKPLDAIIPIGVLIRGNDTHFDYIADSTTHQLMKLNFELGIPVIFGVLTTNSTEQAEERAGTKAGNHGEDWGAAAVEMATKFNLEEQKLISEEDLHHHHHH
- binding result (I53_dn5B_2gly trimer): binds
- binding result (I53_dn5B trimer): binds
